2 molecules from US5646120, “Peptide-based inhibitors of HIV replication” (Allelix Biopharmaceuticals, Inc.) can be followed below.

The target in series [1] is T1, Tat basic domain wild-type oligopeptide ([…]) (HIV-1, UniProt P04608 P04608:49-57).
T1 chain: RKKRRQRRR
Nature of the series: EMSA; affinity similar to tat(1-86). The settings on record: protein: synthetic; tags: synthetic L-peptide, American Peptide Company; hairpin. A general note: In EMSA bound probe runs differently from free probe, usually more slowly.

The next series deals with HIV-1 Tat(1-86) (HIV-1, UniProt P04608 P04608:1-86). Nature of the series: EMSA; TAR variant stated not to bind tat. The note with it: hairpin.

Take GGAGAUCUGAGCCUGGGAGCUCUCUCC (ssRNA) [truncated functional TAR RNA]: in series [1], the binding result is reported as “binds”.

In the case of GGAGAACUGAGCCUGGGAGCUCUCUCC (ssRNA) [TAR variant not binding tat], the binding result with HIV-1 Tat(1-86) was “no binding”.
